Measured values reported in PMC3460626.

Biological target: T1, LasR (Pseudomonas aeruginosa PA14?) (UniProt A0A0H2Z901)
T1 sequence: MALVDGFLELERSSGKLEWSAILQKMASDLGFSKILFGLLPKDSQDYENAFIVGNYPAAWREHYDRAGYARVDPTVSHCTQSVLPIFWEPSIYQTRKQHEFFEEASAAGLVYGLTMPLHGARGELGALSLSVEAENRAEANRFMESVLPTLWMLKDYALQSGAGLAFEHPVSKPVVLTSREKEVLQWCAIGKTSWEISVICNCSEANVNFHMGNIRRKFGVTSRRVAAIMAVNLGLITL
Experiment: EMSA
Conditions: LasR EMSA: 20 mM Tris-HCl pH 7.5, 50 mM KCl, 1 mM EDTA, 1 mM DTT, 100 ug/ml BSA, 10% glycerol, room temp 20 min, 1 pM each specific and nonspecific probe

Row | Sequence | binding
1 | GTCCGAATTCCCGGGAAGCGCCCTGTGACGGACTTCGAATCCTTGCGTCGCGCTCCGTCCTCCGGATTGAGCGGCGCGCTGCGGCGGCCGCGCTCCGGCGCAGCGCCACTGCCAGATCTGGCAGTTGTCGCTGGCGGGGACGGAGGTTTTAGTAGCCGCACTTTTTTCCAGGGCCGGGCAGTGGATCCGGAC (double strand) [PA14_40310 promoter] | binds
2 | GTCCGAATTCCCGTGCTACCCCCGGCAGGCGTAGCCGCGGCAGCCTGCCTCGGCAAAAAGCCATCAGCCGGCGCGCTTCGACGCCCCTCATACCGCCCTTTCGCCAACTACCAATTCTCATAGTTGTGAGGGGAAATTTGTATCTTATTTTAAATACCCACGAAACATATAAAAACACACACAGCGAAACACTTCGGAAACCGGATCCGGAC (double strand) [PA14_48530 promoter] | binds
3 | GTCCGAATTCCTTCTGATGCCGGCGCGGGCGCCCGGCCGGTATGGCCGGCAAGCCCGTCGACGGCTGTCCAGCTACCAGATCCGGTAGCCCTGCCAGATTTCGCAGGCGACCAGATCTGGCAGGTTGTTGGGCTCCCGGTGCCATGCAACCTATTACGCCTCTCGCCCCCCACCCGTTCGCGCAGGATCCGGAC (double strand) [PA14_37745 promoter] | binds
4 | GTCCGAATTCGCAATGGCAGACCTTGCCGTTCAGCGACAGGCAGATCGACGCCGACCCGCAACTGCAACGGCTAAGCATTCGCGAATGATAAGCAATGCCTATCAGATCTGATGGGAAAAAAACTGACGGTTTTTCCGCGCTCGTTCGTCTTTAACCATAGAGGCGGCCCACAGCCGCCCGGTTCCAGGGAACACGTGCAGGATCCGGAC (double strand) [PA14_33830 promoter] | binds
5 | GTCCGAATTCGCGGCTGAATCCGGCTGGGCAGCTGGCGATCATATCGCCAGCCACCCTGCTGGCCCCCGGCGCAGAGCGGCGCGGCTATGCTCGTGCGCCCGGAACGGCCCTATCCGTTCTGGGAGCTACCCCCTCGCCACCCTCGACTAGCATGACCAGGGAGGCCCGCAGTGGACGCCCAGGGCTAGGAGCCGCAGGCGGATCCGGAC (double strand) [PA14_41500 promoter] | binds
6 | GTCCGAATTCGGCGGCCCTTTGCCTGCCTCTACCGGCTCACAGTGCGGGTGCCGACCGCTTTGCATTCCGCGACATCCATCAGGAGTGGGTAGCGAATCTGACCGGCCCGTCACATTTGGTAGGGACCTCAAACCGGCACCGAGGGCTAGGATCAGCCCGCTTCGAAATGAATCCGGTTCTGGAAAGGATCCGGAC (double strand) [PA14_53250 (cbpD) promoter] | binds
7 | GTCCGAATTCGTGGAGGATCGCGTCGCGCAGCTGGCGATAGAGCTGGCCGACCAGGTCGTGGCGGCCGTCGAGGATCAGTTGCAGTTCCATGGCGAAATTGGCTACCTGGTATTTCTGGTAATTGGCTCTTCGTGGAAGCCAAAGGCAGGCTTAGTGTTACCCCATGCCGCGCCGCTTTCCACTCTCGCGGCTGCCAATCAGCCGGATCCGGAC (double strand) [PA14_03490 promoter] | binds
8 | GTCCGAATTCTGGATCGTTTCGTCACAGGAAACGCTGGAGCGCCTATTCCAGAGCGCTTCGAACAATCGGTAAAAATAAAATCCAAATAATCAGACGCAGTTCAAAAACAACCAGAACAGATAGTTTTTCCGCCTTTCCCAACATGCTCCTCTCGCCTTGACTCGTTCGATGCAGCGGATCGCCCATGCGTATGTCCGGCATTGGATCCGGAC (double strand) [PA14_07430 promoter] | binds
9 | GTCCGAATTCTTGTTCTATATGTTCGAACTTGGCTTTGCTCGTTGTTTTAATTTTGCGGAATAACCTCTGGAACTATTCATATGAATTTTTGAAAGTTTGGTTTACCTGAGAGATTTATGAGTTGACCTTGTCACGATGGCAGGACTCATGGTTCGCAGGAGTCAACAAACCAGGATCCGGAC (double strand) [PA14_18800 promoter] | binds
10 | GTCCGGATCCAGTCGCACGGCGACTGCGCCGCCCCCATGGGCGCGGCGAGTCTCTCATCGGACTGAAGGGAGATTATTGGCGAGAGGACTGCGGCGGATAACCTGGCAGAACTGAACGTATCGTTGAATGGAATTCAACGATACCCAAGCCGGGCGGGAATCGCCCGGGCGAGGCCGCGTTCCCGGTGGCCCGCTCCTCGCCGCTAAGCTTGGAC (double strand) [PA14_33890 promoter] | binds more weakly
11 | GTCCGGATCCCGAGGCTCTCCAGAGGAATCCACTGTTGTCTGCCTTATTTTTTATAAATTGTTAACTACCTGTTTTGGTAGGGTTTTCCAAATGGCCATCAATGTCGTTATGATGGCTATAGCCAAGCCGTAAAGGGCATGGACGCAGACGCCTGACGTTTGGCTGAAAATCTTTCATTGGAATTCGGAC (double strand) [lrs2 promoter] | binds
12 | GTCCGGATCCGTCCGAACCCATGAGATGGCAAACCAATGACAACCCACTTTGCTCGGCAAATCGCCTCCCAGATCTCACAGTTCGAGGCGCTCGGCCTGGGCTCCACGGGGGCGACGGCATGCCTGGAAGCGAGCGGCCATCCATCGGGCCGATAGCGCTCCACCCCGTCTCGCCTGCCAGAATTCGGAC (double strand) [lrs1 promoter] | binds
13 | GTCCGGATCCGTCTACCGCAGGGCATTCCGGCGTTTGTCGCGATCAGGGCGGGGGCATGGTTGCAGAGACGGCGGAAGGCTTCACCTACCACAATTGGCAGAGTCGCGGCGGCGATGCTCCGCGCCGGGTTCAACCGGCTTCGCTGAGTTCGGCGACCACCACTCCGGGAAGGTCTTTCAGCAGTGCCGGGGACAGCAGGAATTCGGAC (double strand) [PA14_34870 promoter] | binds
14 | GTCCGGATCCGTTGAAGAGTGAAGCCTTTGGGGGAAGGGCCGCCGCGGCGGAATCCAATCCTTCATGTTGCCAGCTTTGGCAGAGGGATGGGGCCGGCGGCGGTTCGCCTTCCTATGTCAGTTTGTCGCAGCGGGCCGGCCCGCCGCGGTTCAGGACCTGTCGCTGGCGGCGATCTTCGCGAATTCGGAC (double strand) [PA14_23220 promoter] | no binding
15 | GTCCGGATCCTTCCGTGAAGTGTTTCAAATAGCCAGCATCCCTGGTCGCTGATGTGGATTGCATAAAACACAGAACGCTCGTACCGGCTCAACTACAAGATCTGGTAGGTGCCAGACAGGGTATGCGGGATTGCTAAGCTGATGCTTCCTGCAATGCCGGAGGTTGTAGCCAAGTTGTAATTTTATTCTTTCGGTACGCAGGAAAGAATTCGGAC (double strand) [PA14_09480 (phzA1) promoter] | binds
